Assay results published in US20240002503A1.

Target: LILRB2 (human) (UniProt Q8N423)
Assay: flow cytometry HLA-G blocking; hIgG4 isotype control

Sequence of UniProt Q8N423 (Q8N423 22-597): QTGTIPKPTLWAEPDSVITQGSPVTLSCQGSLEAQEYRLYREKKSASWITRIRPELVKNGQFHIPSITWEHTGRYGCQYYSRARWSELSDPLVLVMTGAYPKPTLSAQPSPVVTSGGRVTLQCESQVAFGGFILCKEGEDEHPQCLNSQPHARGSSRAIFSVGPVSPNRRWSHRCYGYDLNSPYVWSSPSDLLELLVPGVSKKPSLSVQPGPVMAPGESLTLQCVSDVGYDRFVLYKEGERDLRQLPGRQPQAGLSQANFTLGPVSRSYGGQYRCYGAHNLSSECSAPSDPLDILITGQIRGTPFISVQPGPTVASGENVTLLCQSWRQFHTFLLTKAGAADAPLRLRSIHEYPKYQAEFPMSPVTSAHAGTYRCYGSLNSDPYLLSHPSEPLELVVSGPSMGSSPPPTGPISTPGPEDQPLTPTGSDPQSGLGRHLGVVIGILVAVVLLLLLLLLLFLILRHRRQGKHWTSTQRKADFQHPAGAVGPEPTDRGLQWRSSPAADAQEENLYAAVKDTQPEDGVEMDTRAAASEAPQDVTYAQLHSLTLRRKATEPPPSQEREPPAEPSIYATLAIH

## Isotype
  IC50: > 66.7 nM
